# Reference: paper PMC6853979, “Structures of GapR reveal a central channel which could accommodate B-DNA”
# T1: GapR (Caulobacter crescentus, UniProt Q9A385 1-89)
# T1 sequence: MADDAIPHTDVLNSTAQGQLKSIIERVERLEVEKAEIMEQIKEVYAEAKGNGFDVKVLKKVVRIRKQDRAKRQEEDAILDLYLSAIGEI
# B1: 19 bp oligonucleotide (19mer) (dsDNA)
# DNA 1: GTTAAGCAACCGTTAACGG
# DNA 2: CCGTTAACGGTTGCTTAAC
# What was measured:
# [1] = molecular target: GapRΔ1-11 (Caulobacter crescentus); assay: crystal structure; GapR or GapRΔ1-11 crystallised with 19-bp dsDNA (DNA not seen in the maps), sitting drop, room temperature, ammonium sulfate and PEG 3350; tetramer formed by crystallographic symmetry
# [2] = molecular target: GapR (full length, Caulobacter crescentus) (Caulobacter crescentus); assay: SEC; 6.25 μM protein (calculated as tetramer); GapR without and with 20 μM 19 bp DNA on Superdex 200 Increase 10 300 GL; GapR and GapR6KtoE on HiLoad 16/600 Superdex 200 pg against protein standards
# [3] = molecular target: GapR (full length, Caulobacter crescentus) (Caulobacter crescentus); assay: SEC-MALS; 50 μl of GapR at 0.5 mM (calculated as tetramer), no DNA, Superdex-200 Increase 10 300 GL, SEC buffer (20 mM HEPES pH 7.4, 200 mM NaCl, 0.2 mM TCEP)
# [4] = molecular target: GapR (full length, Caulobacter crescentus) (Caulobacter crescentus); assay: crystal structure; GapR or GapRΔ1-11 crystallised with 19-bp dsDNA (DNA not seen in the maps), sitting drop, room temperature, ammonium sulfate and PEG 3350; tetramer formed by crystallographic symmetry
# GapR = molecular target: T1, GapR; assay: EMSA; 0.425 uM tetramer, 1.7 uM DNA; EMSA: 10 mM Tris pH 7.5, 50 mM NaCl, 1 mM EDTA; 8% gel in 0.5x TBE pH 8.3 at 4 C; settings: protein: recombinant; tags: N-terminal His8 cleaved by TEV (vector residues may remain); chain copies: 4; blunt
molecule,measurement,setting,value
GapRΔ1-11 (domain or fragment),stoichiometry N,[1],4
"GapR (full length, Caulobacter crescentus) (natural protein)",stoichiometry N,[2],4
same,stoichiometry N,[3],4
same,stoichiometry N,[4],4
B1,binding result,GapR,binds
